Experiment [1] deals with HIV-1 JR-FL Env glycoprotein (unlabelled) on HIV-1 Gag-GFP pseudovirions (HIV-1 JR-FL). Description: single-molecule photobleaching.
Experiment [2] concerns the target HIV-1 NL4-3 Env glycoprotein (unlabelled) on HIV-1 Gag-GFP pseudovirions (HIV-1 NL4-3). In words: single-molecule photobleaching.

A value given as a limit tells only on which side of the number the result lay.

Regarding “HIV-1 JR-FL Env glycoprotein (unlabelled) on HIV-1 Gag-GFP pseudovirions (complex)”, the stoichiometry N in experiment [1] was > 2 Envs.
For the substance “HIV-1 NL4-3 Env glycoprotein (unlabelled) on HIV-1 Gag-GFP pseudovirions (complex)”, in experiment [2], the stoichiometry N is > 3 Envs.

The values are drawn from paper doi:10.1101/2020.08.16.252742.
